Assay [1] addresses Flrt3 ectodomain (zebrafish). Briefly: SPR; BIAcore, kinetic analysis; same surfaces; three concentrations of Unc5b-Cd4d3+4-6His, flow 100 μl/min, 10 Hz, global fit of first-order decay and of an association model; HBS-EP, 28°C; purification of the Flrt baits not stated.
Assay [2] concerns the target Flrt1b ectodomain (zebrafish). The description is as above.
In assay [3] the target is Flrt1a ectodomain (zebrafish). Described as above.
The target of assay [4] is Flrt3 ectodomain (zebrafish). Nature of the assay: SPR; BIAcore, equilibrium analysis; biotinylated Flrt-Cd4d3+4-bio baits (about 1000 RU) on a streptavidin-coated chip, Cd4d3+4-bio as reference; purified monomeric Unc5b-Cd4d3+4-6His injected; HBS-EP, 28°C; purification of the Flrt baits not stated. A general note: Surface plasmon resonance follows binding to a sensor surface in real time, without labels.

Assay [5] has as its target Flrt1b ectodomain (zebrafish). Described as above.
Assay [6] deals with Flrt1a ectodomain (zebrafish). The description is as above.

The term kon denotes the rate constant with which the complex forms. As usually defined, the koff is the rate constant with which the complex falls apart. A word on the pKd: it is the Kd on a negative log10 scale, so that one unit is a factor of ten. High values mean a small Kd, low ones a large Kd.

pKd: −log10 of the molar value.

On to Unc5b-Cd4d3+4-6His (domain or fragment), for which the kon in assay [1], in assay [2] and in assay [3] was more than 100000 M⁻¹ s⁻¹ each time. The koff in assay [2] is 0.6 s⁻¹; in assay [3] it was more than 7 s⁻¹. Also, the t1/2 is 1.2 s in assay [2] and less than 0.1 s in assay [3]. The pKd in assay [4] is 4.85; in assay [5], 5.40; in assay [6], less than 4.30.

Source of the values: article PMC2768988.
